Assay results from US8357518B2, “Thermostable enzymes for the hydrolysis of mannan-containing polysaccharides” (The Board of Trustees of the University of Illinois, priority 2010, dated 2013).

Experiments:
[1] = substrate: OC[C@H]1O[C@@H](O[C@H]2[C@H](O)[C@H](O)[C@H](O[C@H]3[C@H](O)[C@H](O)C(O)O[C@@H]3CO)O[C@@H]2CO)[C@@H](O)[C@@H](O)[C@@H]1O; assay: purified protein, by the assay type; settings: other: Man5B 3 nM, oligosaccharide 30 μM, citrate buffer 50 mM, pH 5.5, 5 min, triplicate
[2] = substrate: OC[C@H]1O[C@@H](O[C@H]2[C@H](O)[C@@H](O)[C@H](O[C@H]3[C@H](O)[C@@H](O)C(O)O[C@@H]3CO)O[C@@H]2CO)[C@H](O)[C@@H](O)[C@@H]1O; assay: purified protein, by the assay type; settings: other: Man5B 3 nM, oligosaccharide 30 μM, citrate buffer 50 mM, pH 5.5, 5 min, triplicate
[3] = substrate: O=[N+]([O-])c1ccc(O[C@@H]2O[C@H](CO)[C@@H](O[C@@H]3O[C@H](CO)[C@@H](O)[C@H](O)[C@H]3O)[C@H](O)[C@H]2O)cc1; assay: Kinetic properties with pNP-linked sugars (Man5B wild type); type: biochemical, Caldanaerobius polysaccharolyticus; settings: other: wild type Man5B 5 nM, substrate 0.06 to 10 mM, 65° C., citrate buffer pH 5.5
Procedure: (§1) The plasmid constructs were then introduced into E. coli BL-21 CodonPlus (DE3) RIL competent cells by heat shock, and grown overnight in lysogeny broth (LB) agar medium supplemented with ampicillin (100 μg/mL) and chloramphenicol (50 μg/mL) at 37° C. After 12 h, single colonies were selected and used to inoculate fresh LB (10 mL) supplemented with the antibiotics above at the same concentrations, followed by culturing with aeration for 8 h at 37° C. The pre-cultures were then inoculated into fresh LB (1 L) supplemented with ampicillin and chloramphenicol and the cultures were incubated at 37° C. with vigorous aeration (225 rpm/min). The cultures were grown to an optical density of 0.3 at 600 nm, and the temperature was shifted to 16° C. and gene expression was induced by the addition of 0.1 mM isopropyl β-D-thiogalactopyranoside (IPTG). After 16 h of growth, the cells were harvested by centrifugation (4000×g, […], 4° C.), the cell pellets were then re-suspended in 30 mL lysis buffer (50 mM Tris-HCl, 300 mM NaCl, pH 7.0), and ruptured by two passages through an EmulsiFlex C-3 cell homogenizer from Avestin (Ottawa, Canada). The cell lysate was then clarified by centrifugation at 20,000×g for 30 min at 4° C. to remove cell debris. The lysate containing recombinant protein was then incubated at 65° C. for 30 min, and centrifuged at 20,000×g for 15 min at 4° C. to remove heat labile E. coli proteins. The recombinant proteins were then purified from the heat treated supernatant using the Talon Metal Affinity Resin according to the supplier's protocol, with the exception that Tris-based binding (50 mM Tris-HCl, 300 mM NaCl, pH 7.5), and elution (50 mM Tris-HCl, 300 mM NaCl, 250 mM Imidazole, pH 7.5) buffers were employed. Aliquots of eluted fractions were analyzed by sodium dodecyl sulfate-polyacrylamide gel electrophoresis (SDS-PAGE) and protein bands were visualized by staining with Coomassie brilliant blue G-250. Elution fractions were pooled and the proteins were then exchanged into protein storage buffer (50 mM Tris-HCl, 150 mM NaCl, pH 7.5) by three successive concentration and dilution cycles with Amicon Ultra-15 centrifugal filter units (Man5A-TM1, Man5A-TM2, 50,000 MWCO; Man5B,10,000 MWCO). The UV absorbances of the protein solutions were recorded at 280 nm using a Nanoprop 1000 from Thermo Scientific (Waltham, Mass.) and the protein concentrations were calculated using the following extinction coefficients: Man5A-TM1, ε280 nm=189 mM^−1 cm^−1; Man5A-TM2, ε280 nm=113 mM^−1 cm^−1; Man5B, ε280 nm=103 mM^−1 cm^−1.
(§2) Determination of kinetic properties for wild type and mutant Man5B with pNP-linked sugars. Kinetic properties of wild type and mutant Man5B were determined for pNP-β-D-mannopyranoside and pNP-β-D-cellobioside. The substrate concentrations ranged from 0.06 to 10 mM and reactions were performed at 65° C. in citrate buffer (50 mM sodium citrate, pH 5.5). The reactions were equilibrated to 65° C. using a thermostated Cary 300 UV-Vis spectrophotometer, and the reactions were initiated by the addition of wild type (5 nM, final concentration) or mutant (2 μM, final concentration) Man5B. The rate of pNP release was determined by continuously monitoring the absorbance at 400 nm. Initial rate data were then plotted against the substrate concentrations, and the values of the Michaelis-Menten constant (KM) and the maximum velocity (Vmax) were estimated from a nonlinear curve fit using GraphPad Prism v5.01 from GraphPad Software (San Diego, Calif.). The kcat was calculated as the quotient of the Vmax and the concentration of enzyme used in the reaction.
(§3) Next, to test whether the mutations introduced in Man5B had any effects on the catalytic activity of this enzyme, the catalytic parameters for the wild type and mutant enzymes were determined using pNP-β-D-cellobioside and pNP-β-D-mannopyranoside as substrates.

[4] = substrate: O=[N+]([O-])c1ccc(O[C@@H]2O[C@H](CO)[C@@H](O)[C@H](O)[C@@H]2O)cc1; assay: as above; type: biochemical, Caldanaerobius polysaccharolyticus; settings: other: wild type Man5B 5 nM, substrate 0.06 to 10 mM, 65° C., citrate buffer pH 5.5
Procedure: as §1, §2, §3

[5] = substrate: O=[N+]([O-])c1ccc(O[C@@H]2O[C@H](CO)[C@@H](O)[C@H](O)[C@@H]2O)cc1; assay: Catalytic efficiency with pNP-linked sugars (Man5A-TM1); type: biochemical, Caldanaerobius polysaccharolyticus; settings: other: Man5A-TM1, pNP substrates, citrate buffer 50 mM, pH 5.5, 65° C., triplicate
Procedure: The plasmid constructs were then introduced into E. coli BL-21 CodonPlus (DE3) RIL competent cells by heat shock, and grown overnight in lysogeny broth (LB) agar medium supplemented with ampicillin (100 μg/mL) and chloramphenicol (50 μg/mL) at 37° C. After 12 h, single colonies were selected and used to inoculate fresh LB (10 mL) supplemented with the antibiotics above at the same concentrations, followed by culturing with aeration for 8 h at 37° C. The pre-cultures were then inoculated into fresh LB (1 L) supplemented with ampicillin and chloramphenicol and the cultures were incubated at 37° C. with vigorous aeration (225 rpm/min). […] Aliquots of eluted fractions were analyzed by sodium dodecyl sulfate-polyacrylamide gel electrophoresis (SDS-PAGE) and protein bands were visualized by staining with Coomassie brilliant blue G-250. […] The UV absorbances of the protein solutions were recorded at 280 nm using a Nanoprop 1000 from Thermo Scientific (Waltham, Mass.) and the protein concentrations were calculated using the following extinction coefficients: Man5A-TM1, ε280 nm=189 mM^−1 cm^−1; Man5A-TM2, ε280 nm=113 mM^−1 cm^−1; Man5B, ε280 nm=103 mM^−1 cm^−1.
Hydrolysis of para-nitrophenyl (pNP) linked sugars. […] The extinction coefficient of pNP at pH 5.5 was determined as 1636 M^−1 cm^−1.

B1: Caldanaerobius polysaccharolyticus endo-β-mannanase Man5B, wild type, SEQ ID NO: 31 (Caldanaerobius polysaccharolyticus) (protein)
chain: MKKYGFNFQWMYVWEEGREPEPPDKKALDFLAETGFNFVRIPVDYRFWTRNFDYFNPDKKVFEYIDLYLRECSARNIHMCLNLHRAPGYCINRNDIERDNLWLDKRAQDGFVYQWELFAKRYKGVSSKFLSFDLVNEPPNIGQYGLTRENHASLIIRTVEAIRKIDPDREIVIDGLGGGNIAMPELAHLGVVHSGRGYQPMALTHYQASWWDGHKGLPEPYYPDLLWQGKVWNKDTLREYYKPWRDLQQKGVNVHIGEFGCFNKTSNDVAIRWFEDVLSLYKEFEWGYSLWNFKGPFGIVEHGRPGAKYEYYRGFKVDRELLDLLVENRV
kcat/Km [1]: 270 ± 50 M⁻¹ s⁻¹ | kcat/Km [2]: 1000 ± 70 M⁻¹ s⁻¹ | Km [3]: (9.7 ± 1) × 10^−2 mM | kcat [3]: 2.4 ± 0.1 s⁻¹ | kcat/Km [3]: 25000 ± 2000 M⁻¹ s⁻¹ | Km [4]: 26 ± 4 mM | kcat [4]: 42 ± 3 s⁻¹ | kcat/Km [4]: 1600 ± 100 M⁻¹ s⁻¹

B2: Caldanaerobius polysaccharolyticus endo-β-mannanase Man5A truncation mutant Man5A-TM1, SEQ ID NO: 28 (Caldanaerobius polysaccharolyticus) (protein)
chain: AGTSGDGRFHVVGNKIVDPDGKDFIIKGVNIQGYRSWEKRSVLQDVHLIADVWKFNTVRLNCFIGQNNWGEGTGANNDIDAIIKAFTAKKVVVEIDLHDTTGYPPLSNPPPAPGQPSLDQAIAWFKELAAKYKDNPYVWFNTMNEPGSSTAPLDPQWKVANEEIIKAIRSTGADNIIVVDGWSYANEGIEQNTPTVDEKRSAVLTYGQDLLNADSAKNTIFAFHNYNEGDIQKKVEDYIDRANAKGLYVFMEEYGKDYSDAAKEGVKSGLQAVMNKGAGRIYWNWDGYDLYDLTSGTGRGSGWEINKTDGSKPTNLSWVGDKIWDDNHGITPTFDDQNPKVDLALERLIANNNGFKAGDKVQFTTFLRNSGDLPIGKDSKVVVKFYVDGVQLGDPVEISGGIAVGQRIPVTSPELTVSKTDFTVKAVIDSSSTYADGAEDAVIENNWIEAAFNSTAPSSGYELVVTGIKITPDTVKEGDYVQAQVTVANQGPEATPVTNIIGWFYVNGYYYTLDDAAKSCAEQDNVTLKPGESITLSTKVKYRAAAPFNFSFVLENLYADDQNQSNNSITVNVPVKMGEGGVNMVSNPGFEDGLDSWQDWQQDMSAVPEAAHNGALGLKIGGGKAAGGGQDIPLKPNTTYILGAWAKFDSKPAGTFDVVVQYHLKDANNTYVQHILNFNETDWTYKQLLFTTPDVFGSTPQLALWKGDTSKANLYVDDVYLVEVSNLIVNGTAENGMDGWPDWGYPVSAVPEAAYGGTKGFKLSGGKQAGMGQKVALKPNTTYILGAWGKFTAKPGTYCDVIVQYHLKDANNTYVQNILRFTETDWTYKQVVFTTPDAFGSDPEFVLWKDDASNADFYADNITLVEV
kcat/Km [5]: (1.4 ± 0.3) × 10^−2 mM^−1 s^−1
